Data on two substances can be found in US20200238197A1.

For assay [1], the target named is Polyclonal human IgG Gammanorm. As to the kind of experiment: Binder coupled to Praesto Pure45 agarose beads. Mass of injected polyclonal hIgG (Gammanorm) at 10% breakthrough, 6 min residence time (Example 10).
In assay [2] the target is human IgG1. Kind of assay: ELISA, IgG1 antibody coated on plate, detection with Strep-Tactin-HRP. (An ELISA detects its analyte on a solid surface through an enzyme-linked reagent.)

For R PROTEIN A, the dynamic binding capacity in assay [1] was 37.4 mg/mL.

The term Kd denotes the concentration at which binding is half-saturated. Low values mean higher affinity, high ones lower affinity. For the substance “Staphylococcus aureus Protein A domain B”, the Kd in assay [2] was 3.1 nM.
